Reference: the supplement of paper PMC9233669
Fewer inactive variants are shown than the library holds.

Assays:
biotinyl-Trp-oxazolone = test: self-aminoacylation, catalytic enhancement (BWO) (fold over background); higher = more active; k-Seq, kA / k0A0; sequences stand for … in GGGAAUGGAUCCACAUCUACGAAUUC…UUCACUGCAGACUUGACGAAGCUG
Summary of the method: (§1)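 Each biotinyl-aminoacyl-oxazolone, at 2–1250 μM, was incubated with mutagenized RNA pools (0.43 μM) carrying a 21-nt variable region. The 50 μL reactions contained HEPES/NaCl/KCl/MgCl2/CaCl2 buffer with 5% acetonitrile at pH 6.9–7.0 and ran for 90 minutes at room temperature. After streptavidin capture, RNA was measured by qPCR in triplicate and by Illumina sequencing, and catalytic enhancement was calculated as median kA over the uncatalyzed rate from a pseudo-first-order fit of per-sequence fraction reacted.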

biotinyl-Val-oxazolone = test: self-aminoacylation, catalytic enhancement (BVO) (fold over background); higher = more active; k-Seq, kA / k0A0; sequences stand for … in GGGAAUGGAUCCACAUCUACGAAUUC…UUCACUGCAGACUUGACGAAGCUG
Summary of the method: as §1

biotinyl-Leu-oxazolone = test: self-aminoacylation, catalytic enhancement (BLO) (fold over background); higher = more active; k-Seq, kA / k0A0; sequences stand for … in GGGAAUGGAUCCACAUCUACGAAUUC…UUCACUGCAGACUUGACGAAGCUG
Summary of the method: as §1

biotinyl-Phe-oxazolone = test: self-aminoacylation, catalytic enhancement (BFO) (fold over background); higher = more active; k-Seq, kA / k0A0; sequences stand for … in GGGAAUGGAUCCACAUCUACGAAUUC…UUCACUGCAGACUUGACGAAGCUG
Summary of the method: as §1

biotinyl-Met-oxazolone = test: self-aminoacylation, catalytic enhancement (BMO) (fold over background); higher = more active; k-Seq, kA / k0A0; sequences stand for … in GGGAAUGGAUCCACAUCUACGAAUUC…UUCACUGCAGACUUGACGAAGCUG
Summary of the method: as §1

biotinyl-Ile-oxazolone = test: self-aminoacylation, catalytic enhancement (BIO) (fold over background); higher = more active; k-Seq, kA / k0A0; sequences stand for … in GGGAAUGGAUCCACAUCUACGAAUUC…UUCACUGCAGACUUGACGAAGCUG
Summary of the method: as §1

Row | Sequence | self-aminoacylation (biotinyl-Trp-oxazolone) | self-aminoacylation (biotinyl-Val-oxazolone) | self-aminoacylation (biotinyl-Leu-oxazolone) | self-aminoacylation (biotinyl-Phe-oxazolone) | self-aminoacylation (biotinyl-Met-oxazolone) | self-aminoacylation (biotinyl-Ile-oxazolone)
1 | CUAUUUCAAACAAUCGGUCUC [Fam1A.1 aminoacylation ribozyme variant] | 3.67 | 0.835 | 0.785 | 7.11 | 0.775 | 0.818
2 | AUUACCCUGGUCAUCUAGUGU [Fam2.1 aminoacylation ribozyme variant] | 4.88 | 2.48 | 4.08 | 9.89 | 4.11 | 2.02
3 | AAGUUUGUUAAUAGACGCAAG [Fam3.1 aminoacylation ribozyme variant] | 0.609 | 0.536 | 0.399 | 0.803 | 0.587 | 0.583
4 | CCACACAUCCAGCAAUCGGUC [Fam1B.1 aminoacylation ribozyme variant] | 0.847 | 1.08 | 0.983 | 0.873 | 1.05 | 1.2
5 | GCACACUUCAAGCAAUCGGUG [Fam1B.1 aminoacylation ribozyme variant] | 10.1 | 5.92 | 10.3 | 49.1 | 8.09 | 6.23
6 | CCACACUUCAAGCAAUCGGAA [Fam1B.1 aminoacylation ribozyme variant] | 1.18 | 1.51 | 2.04 | 1.81 | 1.42 | 1.45
7 | AAGUUUGUUAAUCGUCGCAAG [Fam3.1 aminoacylation ribozyme variant] | 1.04 | 1.22 | 1.15 | 1.05 | 1.35 | 1.21
8 | AAGUGUACUAAUAGUCGCAAG [Fam3.1 aminoacylation ribozyme variant] | 1.2 | 1.51 | 1.2 | 1.74 | 1.17 | 1.4
9 | CCACACUGCAAGCAAUCGGUU [Fam1B.1 aminoacylation ribozyme variant] | 1.76 | 1.73 | 1.63 | 5.76 | 2.17 | 1.77
10 | UAGUUUGCUAGUAGUCGCAAG [Fam3.1 aminoacylation ribozyme variant] | 0.854 | 0.974 | 1.1 | 1.53 | 1.17 | 1.09
11 | CCACACUCCAAGCAAUAGGUC [Fam1B.1 aminoacylation ribozyme variant] | 0.637 | 0.845 | 0.569 | 1.06 | 0.686 | 0.741
12 | AUUAACCUAGGUCAUCGGGGG [Fam2.2 aminoacylation ribozyme variant] | 2.88 | 2.1 | 3.88 | 3.87 | 3.77 | 2.68
13 | AUUACCCUGGUCGCCGAGUGA [Fam2.1 aminoacylation ribozyme variant] | 4.48 | 2.58 | 5.59 | 22.8 | 4.14 | 3.48
14 | AUUGCCCUGUUCAUCGAGUGA [Fam2.1 aminoacylation ribozyme variant] | 7.43 | 4.12 | 5.81 | 25.2 | 5.44 | 3
15 | AAGUUUGCUAAUCGUGGCAAG [Fam3.1 aminoacylation ribozyme variant] | 0.625 | 0.813 | 0.521 | 0.796 | 0.604 | 0.713
16 | CCACAUUUUAAGCAAUCGGUC [Fam1B.1 aminoacylation ribozyme variant] | 0.864 | 1.24 | 1.29 | 1.19 | 0.901 | 1.33
17 | AAGUUUGCUAAUAGUUGUAAG [Fam3.1 aminoacylation ribozyme variant] | 1.55 | 1.28 | 1.12 | 2.23 | 1.48 | 1.29
18 | AUUACCCUGGGCAUCGAUUGA [Fam2.1 aminoacylation ribozyme variant] | 0.622 | 0.648 | 0.749 | 0.38 | 0.593 | 0.645
19 | AAGUUUGCUAAUCGACGCAAG [Fam3.1 aminoacylation ribozyme variant] | 0.72 | 0.547 | 0.477 | 0.783 | 0.581 | 0.534
20 | CCACACCUCAUGCAAUCGGUC [Fam1B.1 aminoacylation ribozyme variant] | 0.975 | 1.05 | 0.685 | 1.19 | 0.839 | 0.959
21 | ACUACCCUGGUCAUCGAGUGU [Fam2.1 aminoacylation ribozyme variant] | 53.1 | 20.3 | 59.7 | 409 | 58.6 | 16.3
22 | CCACUCUUCAAGCACUCGGUC [Fam1B.1 aminoacylation ribozyme variant] | 0.816 | 0.928 | 1.04 | 0.56 | 1.15 | 1.02
23 | AUUCACCUAGGUCAUCGGCUC [Fam2.2 aminoacylation ribozyme variant] | 2.47 | 2.22 | 2.45 | 5.2 | 2.14 | 2.5
24 | AGCCACCUAGGUCAUCGGGUG [Fam2.2 aminoacylation ribozyme variant] | 10.3 | 6.3 | 8.17 | 81.6 | 7.16 | 6.24
25 | AAGAUUGCUACUAGUCGCAAG [Fam3.1 aminoacylation ribozyme variant] | 1.98 | 1.32 | 1.73 | 2.44 | 1.27 | 1.55
26 | CCACACUUCAAGCAAUAGGAC [Fam1B.1 aminoacylation ribozyme variant] | 0.626 | 0.537 | 0.479 | 0.856 | 0.456 | 0.621

Row | Sequence | self-aminoacylation (biotinyl-Trp-oxazolone) | self-aminoacylation (biotinyl-Val-oxazolone) | self-aminoacylation (biotinyl-Leu-oxazolone) | self-aminoacylation (biotinyl-Phe-oxazolone) | self-aminoacylation (biotinyl-Met-oxazolone) | self-aminoacylation (biotinyl-Ile-oxazolone)
27 | CUACUUCAACCAAUCGGUCUU [Fam1A.1 aminoacylation ribozyme variant] | 8.43 | 0.934 | 1.32 | 16 | 0.975 | 1.02
28 | AUUCAGCCAGGUCAUCGGGUG [Fam2.2 aminoacylation ribozyme variant] | 9.91 | 5.4 | 10.7 | 59.7 | 8.99 | 5.25
29 | AAGAUCGCUAAUAGUCGCAAG [Fam3.1 aminoacylation ribozyme variant] | 1.96 | 1.51 | 2.08 | 3.04 | 1.79 | 1.86
30 | AGUCACCUAGGUCAUCGGCUG [Fam2.2 aminoacylation ribozyme variant] | 3 | 2.59 | 2.27 | 18.9 | 2.18 | 2.5
31 | AAGUUGGCUAAUAGUCGCAGG [Fam3.1 aminoacylation ribozyme variant] | 1.23 | 1.34 | 1.97 | 3.81 | 1.6 | 1.59
32 | AUUACCCUGGUUGUCGAGUGA [Fam2.1 aminoacylation ribozyme variant] | 3.23 | 1.33 | 1.85 | 1.97 | 1.91 | 1.38
33 | AUUCAGCUAGGUCCUCGGGUG [Fam2.2 aminoacylation ribozyme variant] | 6.56 | 4.46 | 9.02 | 55.4 | 6.2 | 4.67
34 | AUUACCCUGGACAUCGUGUGA [Fam2.1 aminoacylation ribozyme variant] | 2.5 | 1.44 | 2.45 | 10.9 | 2.41 | 1.39
35 | CCACACUUCCAGCAACCGGUC [Fam1B.1 aminoacylation ribozyme variant] | 1.14 | 1.34 | 0.925 | 0.744 | 0.879 | 1.15
36 | AAGUUUGCUAAUAGUCCCACG [Fam3.1 aminoacylation ribozyme variant] | 0.714 | 0.679 | 0.838 | 0.69 | 0.931 | 0.727
37 | CUACGUCAAACAUUCGGUCUG [Fam1A.1 aminoacylation ribozyme variant] | 3.07 | 3.79 | 2.5 | 12.8 | 2.93 | 2.87
38 | AGUACCCUGGUCCUCGAGUGA [Fam2.1 aminoacylation ribozyme variant] | 4.66 | 2.81 | 5.58 | 18.1 | 4.14 | 2.7
39 | AUUCACCUAGGUUGUCGGGUG [Fam2.2 aminoacylation ribozyme variant] | 4.65 | 3.2 | 5.86 | 27.3 | 4.89 | 3.53
40 | AUUACCCUCGUCAUCGUGUGA [Fam2.1 aminoacylation ribozyme variant] | 1.65 | 1.22 | 1.47 | 1.22 | 1.47 | 1.15
41 | CUACUCAAAACAAUCGGUCUG [Fam1A.1 aminoacylation ribozyme variant] | 1.23 | 0.968 | 0.676 | 1.27 | 1.11 | 1.02
42 | AAUCACCUAGGUCAUCGCGUG [Fam2.2 aminoacylation ribozyme variant] | 10.4 | 7.32 | 12.1 | 70.6 | 11.3 | 6.41
43 | CUUCACCUAGGUCAUCGCGUG [Fam2.2 aminoacylation ribozyme variant] | 10.9 | 8.89 | 13.6 | 96.5 | 12.4 | 7.29
44 | AAGUUUGCUAAUAGUCUUAAG [Fam3.1 aminoacylation ribozyme variant] | 6.3 | 1.11 | 1.11 | 25.7 | 1.24 | 1.16
45 | CUAAUUCAACCAAUCGGUCUG [Fam1A.1 aminoacylation ribozyme variant] | 1.19 | 0.741 | 0.676 | 2.11 | 0.63 | 0.66
46 | AUUCACCUAGUUCAUCAGGUG [Fam2.2 aminoacylation ribozyme variant] | 0.893 | 0.934 | 0.986 | 0.467 | 0.796 | 0.872
47 | AAGUUUGCUAAUUGUCCCAAG [Fam3.1 aminoacylation ribozyme variant] | 1.01 | 1.21 | 0.999 | 2.16 | 1.15 | 1.28
48 | AUUCACCUAGAUCGUCGGGUG [Fam2.2 aminoacylation ribozyme variant] | 0.967 | 1.38 | 1.3 | 3.8 | 1.06 | 1.14
49 | AUUCACCUAAGUCAUCGGGCG [Fam2.2 aminoacylation ribozyme variant] | 2.51 | 2.53 | 4.95 | 9.59 | 2.83 | 2.63
50 | CCACACUUCAAGCUAUGGGUC [Fam1B.1 aminoacylation ribozyme variant] | 0.724 | 0.911 | 0.763 | 0.774 | 0.875 | 0.966
51 | GUUACCCUGGUGAUCGAGUGA [Fam2.1 aminoacylation ribozyme variant] | 8.86 | 3.33 | 7.43 | 34.8 | 6.75 | 3.37
